Measurements from article PMC6546705.

Biological target: recombinant MnSOD-WT (manganese superoxide dismutase, wild type) (UniProt P04179)
Test: SEC; Superdex 200 Increase 10/300 GL, 50 mM potassium phosphate pH 7.8; size from a calibration curve of gel filtration standards

“recombinant MnSOD-WT (manganese superoxide dismutase, wild type) (from UniProt P04179 25-222) (enzyme)” gave a stoichiometry N of 4.
